# In the nanobody polyreactivity screen of Harvey et al. (2022):
# Experiment: yeast display, Sf9 membrane polyspecificity reagent, FACS + sequencing; frameworks hold sequencing errors
# Procedure, shortened: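 Galactose-induced (36–48 hours) yeast carrying a synthetic nanobody display library were exposed to 10% biotinylated, detergent-solubilized Sf9 membrane reagent at 4 °C for 1 hour. FACS followed streptavidin microbead enrichment, using low and high (top ~1%) gates for expression (anti-HA) and reagent binding (streptavidin). Colony PCR, MiSeq 2 × 250 sequencing and CDR-length filtering followed. Labels for polyreactivity reflect the gate of origin.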
row,Sequence,polyreactivity (PSR sort gate)
1,QVQLVESGGGLVQAGGSLRLSCAASGFTFYYYAMGLYRQAPGKERELVAAITYSGGSTYYADSVKGRFTISRDNAKNTVYLQMNSLKPEDTAVYYCAAEAIPRLSWWYGVDYWGQGTQVTVSS,low polyreactivity
2,QVQLVESGGGLVQAGGSLRLSCAASGFTFYYYAMGWYRQAPGKERELVAAINGGSSTNYADSVKGRFTISRDNAKNTVYLQMNSLKPDDTAVYYCAAETRFYRNIDKIYFVLDRVDYWGQGTQVTVSS,low polyreactivity
3,QVQLVESGGGLVQAGGSLRLSCAASGFTFYYYAMGWYRQAPGKERELVAAISDSGGITSYADSVKGRFTISRDNAKNTVYLQMNSLKPEDTAVYYCAAEWSQWPYDYWGQGTQVTVSS,low polyreactivity
4,QVQLVESGGGLVQAGGSLRLSCAASGFTFYYYAMGWYRQAPGKERELVAGINSDGNTYYADSVKGRFTISRDNAKNNVYLQMNSLKPEDTAVYYCAASKLWPKNFVRHDYWGQGTQVTVSS,low polyreactivity
5,QVQLVESGGGLVQAGGSLRLSCAASGFTFYYYAMGWYRQAPGKERELVARITSGGSTYYADSVKGRFTISRDNAKNTVYLQMISLKPEDTAVYYCNVDVSVEVAYWGQGTQVTVSS,low polyreactivity
6,QVQLVESGGGLVQAGGSLRLSCAASGFTFYYYAMGWYRQAPGKERELVATISSGGSTYYADSVKGRFTISRDNAKNTVYLQMNSLKPEDTAVYYCAADYLIYYLYEGSIKYGYWGQGTQVTVSS,high polyreactivity
7,QVQLVESGGGLVQAGGSLRLSCAASGFTFYYYAMGWYRQEPGKERELVAAISSRGGSTYYADSVKGRFTISRDNAKNTVYLQMNSLKREDTPVYYCAAVYKYGGATYRSTSYYYWGQGTQVTVSS,high polyreactivity
8,QVQLVESGGGLVQAGGSLRLSCAASGFTFYYYPMGWYRQAPGKERELVAAISSSGGRTYYADSVKGRFTISRDNSKNTVYLQMNSLKPEDTAVYYCAADRYFRSYDYWGQGTQVTVSS,high polyreactivity
9,QVQLVESGGGLVQAGGSLRLSCAASGFTFYYYTMGWYRQAPGKERELVAAITLSGSTTYYADSVKGRFTISRDNAKNTVYLQMNSLKPEDTAVYYCAAGFSYEWGYPTFDYWGQGTQVTVSS,low polyreactivity
10,QVQLVESGGGLVQAGGSLRLSCAASGFTFYYYTMGWYRQAPGKERELVAGITSRGGSTTYADSVKGRFTISRDNAKNTVYLQMNSLKPEDTAVYYCNARWAVHSGYDYWGQGTLVTVSS,high polyreactivity
11,QVQLVESGGGLVQAGGSLRLSCAASGFTIAPDAMGWYRPAPGKERELVADISYSGGSKYYADSVKGRFTISRDTAKNTVYLQMNSLKPEDTAVYYCNAVIWWYWGRSYAYNYWGQGTQVTVSS,high polyreactivity
12,QVQLVESGGGLVQAGGSLRLSCAASGFTIGKNAMGWYRQAPGKERELVAAISLSGGRTYADSVKGRFTISRDNAKNTVYLQTNSLKPEDTAVYYCAANRYPKFYWGQGTQVTVSS,high polyreactivity
13,QVQLVESGGGLVQAGGSLRLSCAASGFTIGSNVMGWYRQAPGKERELVAAISSRGGSTYYADSVKGRFTISRDNAMNTVYLQMNSLKPEDTAVYDCAADAYYRGGWGDYWGQGTQVTVSS,high polyreactivity
14,QVQLVESGGGLVQAGGSLRLSCAASGFTIGYNVMGWYRQAPGKERELVATISWNGARTYYADSVKGRFTISRDNAKNTVYLQMNSLKPEDTAVYYCAARRYYRGEYDYWGQGTQVTVSS,low polyreactivity
15,QVQLVESGGGLVQAGGSLRLSCAASGFTIGYYVMGWYRQAPGKDRELVAAITRSGSRTYYADSVKGRFTISRDNAKNTVYLQMNSLKPEETAVYYCAADYKTFLRSFDYWGQGTQVTVSS,high polyreactivity
16,QVQLVESGGGLVQAGGSLRLSCAASGFTIHRYAMGWYRQAPGKERELVAAIRWSGGRTYYADSVKGRFTISRDNAKNTVYLQMNSLKPEDTAVYYCAARTNSPRGYGSDYWGKGTQVTVSS,high polyreactivity
17,QVQLVESGGGLVQAGGSLRLSCAASGFTIIRYAMGWYRPAPGKERELVATITRRGGSTYYADSVKGRFTISRDNAKNTVYLQMNSLKPEDTAVYYCAARIRPLYANVRYGYWGQGTQVTVSS,high polyreactivity
18,QVQLVESGGGLVQAGGSLRLSCAASGFTIISYTMGWYRQAPGKERELVAAIRGGGRTYYADSVKGRFTISRDNAKNTVYLQMNSQKPEDTAVYYCASRLRYGGHYDYWGQGTQVTVSS,high polyreactivity
19,QVQLVESGGGLVQAGGSLRLSCAASGFTIPTYTMGWYRQAPGKEREFVARITKRGGSTYYADSVKGRFTISRDNAKNTVYLQMNGLKPEDTAVYYCNARRYGKVVRSRYNYWGQGTQVTVSS,high polyreactivity
20,QVQLVESGGGLVQAGGSLRLSCAASGFTIPVYVMGWYRQAPGKERELVAAITRTGGRTYYADSVKGRFTISRDNAKNTVYLQMNSLKPEDTAVYYCAAFTHRYGISEFDYWGQGTQVTVSS,high polyreactivity
21,QVQLVESGGGLVQAGGSLRLSCAASGFTIQRYAMGWYRQAPGKERELVAAITSGGSTYYADSVKGRFTISRDNAKNTVYLQMNSLKPEDTAVYYCATRAVWSSWGRRYDSWGQGTQVTVSS,high polyreactivity
22,QVQLVESGGGLVQAGGSLRLSCAASGFTIRSYVMGWYRQAPGKEREFVAAISYRGGGTNYADSVKGRFTISRDNAKNTVYLQMNSLKPEDTAVYYCNARSGSSKSGYYYWGQGTQVTVSS,high polyreactivity

row,Sequence,polyreactivity (PSR sort gate)
1,QVQLVESGGGLVQAGGSLRLSCAASGFTIRWYLMGWYRQAPGKERELVAAISWSGDRTYYADSVKGRFTISRDNAKNTVYLQMNSLKPEDTAVYYCNSLSAFQVDNYDYWGQGTQVTVSS,high polyreactivity
2,QVQLVESGGGLVQAGGSLRLSCAASGFTIRYYAMGWYRQAPGKERELVAAIRFSGGSTYYADSVKGRFTISRDNAKNTVYLQMNSLKPEDTAVYYCNARRRYGLDLGTFGYWGQGTQVTVSS,high polyreactivity
3,QVQLVESGGGLVQAGGSLRLSCAASGFTIRYYAMGWYRQAPGKERELVAAISSSGGSTYYADSVKGRFTISRDNAKNTVYLQMNSLKTEDTAVYYCAAYYHGRMDYWGQGTQVTVSS,high polyreactivity
4,QVQLVESGGGLVQAGGSLRLSCAASGFTIRYYTMGWYRQAPGKERELVAAITWSGGRTYYADSVKGRFTISRDNAKNTVYLQMNSLKPDETAVYYCAADVTKRASRDYYWGQGTQVTVSS,high polyreactivity
5,QVQLVESGGGLVQAGGSLRLSCAASGFTITYYVMGWYRQAPGKERELVAAISSGGRTYYADSVKGRFTISRDNAKNTVYLQMNSLKPEDTAVYYCARAISIYPGFGYWGQGTQVTVSS,high polyreactivity
6,QVQLVESGGGLVQAGGSLRLSCAASGFTIVHYAMGWYRQAPGKERELVAAITWNGGRTYYADSVKGRFTISRDTAKNTVYLQMNSLKPEDTAVYYCAVRYKSWYGFNYWGQGTQVTVSS,high polyreactivity
7,QVQLVESGGGLVQAGGSLRLSCAASGFTIYIYVMGWYRQAPGKETELVADITWSGGRTYYADSVKGRFTISRDNAKNTVYLQMNSLKPEDTAVYYCAASYPGLSYHKYEYWGQGTQVTVSS,high polyreactivity
8,QVQLVESGGGLVQAGGSLRLSCAASGFTIYWYAMGWYRQAPGKERELVAAITRSGSSTYYADSVKGRFTISRDNAKNTVYVQMNSLKPEDTAVYYSAALPYTPYYDAYDYWGQGTQVTVSS,high polyreactivity
9,QVQLVESGGGLVQAGGSLRLSCAASGFTIYYYAMAWYRQAPGKERELVAAISYSGGSTYYADSVKGRFTISRDNAKNTVYLQMNSLKPEDTAVYYCAVDWYGSYGYGGSQKSDYWGLGTQVTVSS,high polyreactivity
10,QVQLVESGGGLVQAGGSLRLSCAASGFTIYYYAMGWYRQAPGKERELVASISWRGGSTYYADSVKGRFTISRDNAKNTDYIQINSLKAEDTAVYYCAAQKRGSPGNRRDYWGQGTQVTVSS,high polyreactivity
11,QVQLVESGGGLVQAGGSLRLSCAASGFTIYYYAMGWYRQAPGKVRELVASITSGGSTYYADSVKGRFTISRDNAMNTVYLQMNSLKPEDTAVYYCAQTRFHSKEGDYWGQGTQVTVSS,low polyreactivity
12,QVQLVESGGGLVQAGGSLRLSCAASGFTLAFYGMGWYRQAPGKERELVAAISWSGDSTYYADSVKGRFTISRDNAKNTVYLQMNSLKPEDTAVYYCAKPKRRFYDRPSDYWGQGTQVTVSS,high polyreactivity
13,QVQLVESGGGLVQAGGSLRLSCAASGFTLALNAMGWYRQAPGKERELVAVINSGGSTNYADSVKGRFTISRDNAKNTVYLQMNSLKPEDTAVYYYWGQGTQVTESS,low polyreactivity
14,QVQLVESGGGLVQAGGSLRLSCAASGFTLAWYAMGWYRQAPGKERELVATIRSGGNTYYADSVKGRFTISRDNAKNTVYLQMNSLKPEDTAVYYCAKTHTYPRYGRGYDYWGQGTQVTVSS,high polyreactivity
15,QVQLVESGGGLVQAGGSLRLSCAASGFTLDWYVMGWYRQAPGKDRELVAAISSSGGRTYYADSVKGRFTISRDNAKNTVYLQMNSLKPEDTAVYYCAARNKYGGYPYGYDYWGQGTQVTVSS,high polyreactivity
16,QVQLVESGGGLVQAGGSLRLSCAASGFTLDWYVMGWYRQAPGKERELVAAISSSGGRTYYADSVKGRFTISRDNAKNTVSLQLNSLKPEDTAVYYCAARNKYGGYPYGYDYWGQGTQVTVSS,high polyreactivity
17,QVQLVESGGGLVQAGGSLRLSCAASGFTLDWYVMGWYRQAPGKERELVAAISSSGGRTYYADSVKGRFTISRDNAKNTVYLQMNSLKPEDPAVYYCAARNKYGGYPYGYDYWGQGTQVTVSS,high polyreactivity
18,QVQLVESGGGLVQAGGSLRLSCAASGFTLEFYAMGWYRQAPGKERELVAAISKSGGSTYYADSVKGRFTISRDNAKNTVYLQMNSLKPEDTAVYYCAKVNSYGPVPDRYDYWGQGTQVTVSS,high polyreactivity
19,QVQLVESGGGLVQAGGSLRLSCAASGFTLEFYAMGWYRQAPGKERELVASISSGGRTNYADSVKGRFTISRDNAKNTVFLQMNSLKPEDTAVYYCAAEYRSWGRYRYRFNYWGQGTQVTVSS,high polyreactivity
20,QVQLVESGGGLVQAGGSLRLSCAASGFTLENYAMGWYRQAPGKARELVAAINCRGSRTYYADSVKGRFTISRDNAMNTVYLQMNSLKPEDTAVYYCARDKRTNSGFYYWGQGTQVTVSS,high polyreactivity
21,QVQLVESGGGLVQAGGSLRLSCAASGFTLGFNARGWYRQAPGKERELVAAITIGGTTYYADSVKGRFTISRDNAKNTVYLQMNSLKPEDTAVYYCAAARFLWFYVYTTRVQRYGYWGQGTQVTVSS,low polyreactivity
